# Values quoted from earlier work, collected in paper PMC6359293.
# Columns and labels:
# [1] = biological target: hsp70 (Homo sapiens) (UniProt P0DMV8)
# [2] = biological target: Phosphoprotein XD XD (Measles morbillivirus) (UniProt P03422)
# UniProt P03422, sequence (P03422 457-507): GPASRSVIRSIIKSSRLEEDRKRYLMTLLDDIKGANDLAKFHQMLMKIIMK
# UniProt P0DMV8, sequence (P0DMV8 2-641): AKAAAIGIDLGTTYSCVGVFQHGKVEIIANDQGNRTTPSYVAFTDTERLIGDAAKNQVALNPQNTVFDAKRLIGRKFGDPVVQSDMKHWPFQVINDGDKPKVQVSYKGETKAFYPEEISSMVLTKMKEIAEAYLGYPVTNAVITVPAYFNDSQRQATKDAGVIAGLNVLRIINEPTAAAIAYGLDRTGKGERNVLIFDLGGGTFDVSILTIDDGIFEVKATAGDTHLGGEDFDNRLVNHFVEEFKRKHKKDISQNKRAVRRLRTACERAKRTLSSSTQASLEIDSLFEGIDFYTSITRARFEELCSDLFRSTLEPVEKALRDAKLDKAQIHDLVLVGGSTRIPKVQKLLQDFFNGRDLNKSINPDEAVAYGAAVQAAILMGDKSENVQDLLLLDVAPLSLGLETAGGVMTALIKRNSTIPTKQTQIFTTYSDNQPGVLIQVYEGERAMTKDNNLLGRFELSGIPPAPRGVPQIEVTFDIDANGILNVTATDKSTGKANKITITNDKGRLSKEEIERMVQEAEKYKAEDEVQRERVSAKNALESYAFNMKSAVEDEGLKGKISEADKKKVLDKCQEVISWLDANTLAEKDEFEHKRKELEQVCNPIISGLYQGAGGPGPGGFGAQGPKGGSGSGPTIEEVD
substance,measurement,setting,value
Measles virus nucleoprotein NTAIL NTAIL (from UniProt P04851),Kd,[1],70 µM
same,Kd,[2],3 µM
